Legend:
Format in all cases: biochemical
[1] = Carboxylate reductase activity assay, adipate to adipate semialdehyde; settings: enhanced by gene product of sfp, 2 mM adipate, room temperature, 20 min, vs empty vector control, FIG. 10
Method: A nucleotide sequence encoding a HIS-tag was added to the genes from Segniliparus rugosus and Segniliparus rotundus that encode the carboxylate reductases of SEQ ID NOs: 5 and 7, respectively (see FIGS. 7C and 7E), such that N-terminal HIS tagged carboxylate reductases could be produced. Each of the modified genes was cloned into a pET Duet expression vector along with a sfp gene encoding a HIS-tagged phosphopantetheine transferase from Bacillus subtilis, both under the T7 promoter. Each expression vector was transformed into a BL21[DE3] E. coli host and the resulting recombinant E. coli strains were cultivated at 37° C. in a 250 mL shake flask culture containing 50 mL LB media and antibiotic selection pressure, with shaking at 230 rpm. Each culture was induced overnight at 37° C. using an auto-induction media.
The pellet from each induced shake flask culture was harvested via centrifugation. Each pellet was resuspended and lysed via sonication, and the cell debris was separated from the supernatant via centrifugation. […]
Enzyme activity assays (i.e., from adipate to adipate semialdehyde) were performed in triplicate in a buffer composed of a final concentration of 50 mM HEPES buffer (pH=7.5), 2 mM adipate, 10 mM MgCl2, 1 mM ATP and 1 mM NADPH. […] The consumption of NADPH was monitored by absorbance at 340 nm.

[2] = Pimeloyl-[acp] methyl ester methylesterase activity assay, adipyl-CoA methyl ester to adipyl-CoA; settings: 10 μM enzyme, 5 mM adipyl-CoA methyl ester, pH 7.0, 30° C., 1 h, FIG. 20
Method: A sequence encoding an C-terminal His-tag was added to the gene from Escherichia coli encoding the pimeloyl-[acp] methyl ester methylesterase of SEQ ID NO: 17 (see FIG. 7G) such that C-terminal HIS tagged pimeloyl-[acp] methyl ester methylesterase could be produced. The resulting modified gene was cloned into a pET28b+ expression vector under control of the T7 promoter and the expression vector was transformed into a BL21[DE3] E. coli host. The resulting recombinant E. coli strain was cultivated at 37° C. in a 500 mL shake flask culture containing 100 mL LB media and antibiotic selection pressure, with shaking at 230 rpm. Each culture was induced overnight at 18° C. using 0.3 mM IPTG.
The pellet from each induced shake flask culture was harvested via centrifugation. Each pellet was resuspended and lysed via sonication. The cell debris was separated from the supernatant via centrifugation. The pimeloyl-[acp] methyl ester methylesterase was purified from the supernatant using Ni-affinity chromatography, buffer exchanged and concentrated into 20 mM HEPES buffer (pH=7.5) via ultrafiltration and stored at 4° C.
Enzyme activity assays converting adipyl-CoA methyl ester to adipyl-CoA were performed in triplicate in a buffer composed of a final concentration of 25 mM Tris.HCl buffer (pH=7.0) and 5 [mM] adipyl-CoA methyl ester. […] The formation of adipyl-CoA was quantified via LC-MS.

[3] = ω-transaminase activity assay, reverse direction, 6-aminohexanoate to adipate semialdehyde; settings: cell free extract, 10 mM 6-aminohexanoate, 10 mM pyruvate, 25° C., 24 h, vs empty vector control, FIG. 15
Method: (§1) A nucleotide sequence encoding a His-tag was added to the genes from Chromobacterium violaceum, Pseudomonas aeruginosa, Pseudomonas syringae, Rhodobacter sphaeroides, and Vibrio fluvialis encoding the ω-transaminases of SEQ ID NOs: 7, 8, 9, 10 and 12, respectively (see FIGS. 7E and 7F) such that N-terminal HIS tagged ω-transaminases could be produced. Each of the resulting modified genes was cloned into a pET21a expression vector under control of the T7 promoter and each expression vector was transformed into a BL21[DE3] E. coli host. The resulting recombinant E. coli strains were cultivated at 37° C. in a 250 mL shake flask culture containing 50 mL LB media and antibiotic selection pressure, with shaking at 230 rpm. Each culture was induced overnight at 16° C. using 1 mM IPTG.
(§2) The pellet from each induced shake flask culture was harvested via centrifugation. Each pellet was resuspended and lysed via sonication. The cell debris was separated from the supernatant via centrifugation and the cell free extract was used immediately in enzyme activity assays.
Enzyme activity assays in the reverse direction (i.e., 6-aminohexanoate to adipate semialdehyde) were performed in a buffer composed of a final concentration of 50 mM HEPES buffer (pH=7.5), 10 mM 6-aminohexanoate, 10 mM pyruvate and 100 μM pyridoxyl 5′ phosphate. Each enzyme activity assay reaction was initiated by adding cell free extract of the ω-transaminase gene product or the empty vector control to the assay buffer containing the 6-aminohexanoate and incubated at 25° C. for 24 h, with shaking at 250 rpm. The formation of L-alanine from pyruvate was quantified via RP-HPLC.

[4] = ω-transaminase activity assay, forward direction, adipate semialdehyde to 6-aminohexanoate; settings: cell free extract, 10 mM adipate semialdehyde, 10 mM L-alanine, 25° C., 4 h, vs empty vector control, FIG. 16
Method: as §1, §2
Enzyme activity in the forward direction (i.e., adipate semialdehyde to 6-aminohexanoate) was confirmed for the transaminases of SEQ ID NO 7, SEQ ID NO 8, SEQ ID NO 9, SEQ ID NO 10 and SEQ ID NO 12. Enzyme activity assays were performed in a buffer composed of a final concentration of 50 mM HEPES buffer (pH=7.5), 10 mM adipate semialdehyde, 10 mM L-alanine and 100 μM pyridoxyl 5′ phosphate. Each enzyme activity assay reaction was initiated by adding a cell free extract of the ω-transaminase gene product or the empty vector control to the assay buffer containing the adipate semialdehyde and incubated at 25° C. for 4 h, with shaking at 250 rpm. The formation of pyruvate was quantified via RP-HPLC.

[5] = Carboxylate reductase activity assay, adipate semialdehyde to hexanedial; settings: enhanced by gene product of sfp, 2 mM adipate semialdehyde, room temperature, 20 min, vs empty vector control, FIG. 13
Method: The N-terminal His-tagged carboxylate reductase of SEQ ID NO 7 (see Example 4 and FIG. 7E) was assayed using adipate semialdehyde as substrate. The enzyme activity assay was performed in triplicate in a buffer composed of a final concentration of 50 mM HEPES buffer (pH=7.5), 2 mM adipate semialdehyde, 10 mM MgCl2, 1 mM ATP and 1 mM NADPH. The enzyme activity assay reaction was initiated by adding purified carboxylate reductase and phosphopantetheine transferase or the empty vector control to the assay buffer containing the adipate semialdehyde and then incubated at room temperature for 20 min. The consumption of NADPH was monitored by absorbance at 340 nm.

| Molecule | carboxylate reductase activity for converting adipate to adipate semialdehyde (consumption of NADPH, absorbance at 340 nm) [1] | conversion of adipyl-CoA methyl ester to adipyl-CoA by pimeloyl-[acp] methyl ester methylesterase (LC-MS) [2] | ω-transaminase activity for converting 6-aminohexanoate to adipate semialdehyde (formation of L-alanine from pyruvate, RP-HPLC) [3] | ω-transaminase activity for converting adipate semialdehyde to 6-aminohexanoate (formation of pyruvate, RP-HPLC) [4] | carboxylate reductase activity for converting adipate semialdehyde to hexanedial (consumption of NADPH, absorbance at 340 nm) [5] |
| --- | --- | --- | --- | --- | --- |
| SEQ ID NO 5: Segniliparus rugosus carboxylate reductase (Genbank Accession No. EFV11917.1) (protein, listed as Segniliparus rugosus) MGDGEERAKRFFQRIGELSATDPQFAAAAPDPAVVEAVSDPSLSFTRYLDTLMRGYAERPALAHRVGAGYETISYGELWARVGAIAAAWQADGLAPGDFVATVGFTSPDYVAVDLAAARSGLVSVPLQAGASLAQLVGILEETEPKVLAASASSLEGAVACALAAPSVQRLVVFDLRGPDASESAADERRGALADAEEQLARAGRAVVVETLADLAARGEALPEAPLFEPAEGEDPLALLIYTSGSTGAPKGAMYSQRLVSQLWGRTPVVPGMPNISLHYMPLSHSYGRAVLAGALSAGGTAHFTANSDLSTLFEDIALARPTFLALVPRVCEMLFQESQRGQDVAELRERVLGGRLLVAVCGSAPLSPEMRAFMEEVLGFPLLDGYGSTEALGVMRNGIIQRPPVIDYKLVDVPELGYRTTDKPYPRGELCIRSTSLISGYYKRPEITAEVFDAQGYYKTGDVMAEIAPDHLVYVDRSKNVLKLSQGEFVAVAKLEAAYGTSPYVKQIFVYGNSERSFLLAVVVPNAEVLGARDQEEAKPLIAASLQKIAKEAGLQSYEVPRDFLIETEPFTTQNGLLSEVGKLLRPKLKARYGEALEARYDEIAHGQADELRALRDGAGQRPVVETVVRAAVAISGSEGAEVGPEANFADLGGDSLSALSLANLLHDVFEVEVPVRIIIGPTASLAGIAKHIEAERAGASAPTAASVHGAGATRIRASELTLEKFLPEDLLAAAKGLPAADQVRTVLLTGANGWLGRFLALEQLERLARSGQDGGKLICLVRGKDAAAARRRIEETLGTDPALAARFAELAEGRLEVVPGDVGEPKFGLDDAAWDRLAEEVDVIVHPAALVNHVLPYHQLFGPNVVGTAEIIRLAITAKRKPVTYLSTVAVAAGVEPSSFEEDGDIRAVVPERPLGDGYANGYGNSKWAGEVLLREAHELVGLPVAVFRSDMILAHTRYTGQLNVPDQFTRLVLSLLATGIAPKSFYQQGAAGERQRAHYDGIPVDFTAEAITTLGAEPSWFDGGAGFRSFDVFNPHHDGVGLDEFVDWLIEAGHPISRIDDHKEWFARFETAVRGLPEAQRQHSLLPLLRAYSFPHPPVDGSVYPTGKFQGAVKAAQVGSDHDVPHLGKALIVKYADDLKALGLL | accepted adipate as substrate |  |  |  |  |
| SEQ ID NO. 17: Escherichia coli pimeloyl-[acp] methyl ester esterase (GenBank Accession No. AAC76437.1), C-terminal His-tagged (protein, listed as Escherichia coli, C-terminal His tag) MNNIWWQTKGQGNVHLVLLHGWGLNAEVWRCIDEELSSHFTLHLVDLPGFGRSRGFGALSLADMAEAVLQQAPDKAIWLGWSLGGLVASQIALTHPERVQALVTVASSPCFSARDEWPGIKPDVLAGFQQQLSDDFQRTVERFLALQTMGTETARQDARALKKTVLALPMPEVDVLNGGLEILKTVDLRQPLQNVSMPFLRLYGYLDGLVPRKVVPMLDKLWPHSESYIFAKAAHAPFISHPAEFCHLLVALKQRV |  | accepted adipyl-CoA methyl ester as substrate |  |  |  |
| SEQ ID NO 7: Segniliparus rotundus carboxylate reductase (Genbank Accession No. ADG98140.1); in Example 2 the same label is printed for a ω-transaminase (protein, listed as Segniliparus rotundus) MTQSHTQGPQASAAHSRLARRAAELLATDPQAAATLPDPEVVRQATRPGLRLAERVDAILSGYADRPALGQRSFQTVKDPITGRSSVELLPTFDTITYRELRERATAIASDLAHHPQAPAKPGDFLASIGFISVDYVAIDIAGVFAGLTAVPLQTGATLATLTAITAETAPTLFAASIEHLPTAVDAVLATPSVRRLLVFDYRAGSDEDREAVEAAKRKIADAGSSVLVDVLDEVIARGKSAPKAPLPPATDAGDDSLSLLIYTSGSTGTPKGAMYPERNVAHFWGGVWAAAFDEDAAPPVPAINITFLPLSHVASRLSLMPTLARGGLMHFVAKSDLSTLFEDLKLARPTNLFLVPRVVEMLYQHYQSELDRRGVQDGTREAEAVKDDLRTGLLGGRILTAGFGSAPLSAELAGFIESLLQIHLVDGYGSTEAGPVWRDGYLVKPPVTDYKLIDVPELGYFSTDSPHPRGELAIKTQTILPGYYKRPETTAEVFDEDGFYLTGDVVAQIGPEQFAYVDRRKNVLKLSQGEFVTLAKLEAAYSSSPLVRQLFVYGSSERSYLLAVIVPTPDALKKFGVGEAAKAALGESLQKIARDEGLQSYEVPRDFIIETDPFTVENGLLSDARKSLRPKLKEHYGERLEAMYKELADGQANELRDIRRGVQQRPTLETVRRAAAAMLGASAAEIKPDAHFTDLGGDSLSALTFSNFLHDLFEVDVPVGVIVSAANTLGSVAEHIDAQLAGGRARPTFATVHGKGSTTIKASDLTLDKFIDEQTLEAAKHLPKPADPPRTVLLTGANGWLGRFLALEWLERLAPAGGKLITIVRGKDAAQAKARLDAAYESGDPKLAGHYQDLAATTLEVLAGDFSEPRLGLDEATWNRLADEVDFISHPGALVNHVLPYNQLFGPNVAGVAEIIKLAITTRIKPVTYLSTVAVAAGVEPSALDEDGDIRTVSAERSVDEGYANGYGNSKWGGEVLLREAHDRTGLPVRVFRSDMILAHQKYTGQVNATDQFTRLVQSLLATGLAPKSFYELDAQGNRQRAHYDGIPVDFTAESITTLGGDGLEGYRSYNVFNPHRDGVGLDEFVDWLIEAGHPITRIDDYDQWLSRFETSLRGLPESKRQASVLPLLHAFARPGPAVDGSPFRNTVFRTDVQKAKIGAEHDIPHLGKALVLKYADDIKQLGLL | accepted adipate as substrate |  | accepted 6-aminohexanote as substrate | accepted adipate semialdehyde as substrate | accepted adipate semialdehyde as substrate |

— patent publication US9580733B2, “Methods of producing 6-carbon chemicals via methyl-ester shielded carbon chain elongation” (INVISTA North America S.á r.l., priority 2012, dated 2017)
